The supplement of paper PMC10567573

B1: TCEB3B (parent)
chain: STTALGDKQRKANESKGTRESWDS
B2: ZNF449 (parent)
chain: HKKKSPGEKPHRCPQCGKCFARKS

Variants of: B1
Assay: protein stability index of a GFP-peptide fusion (GPS, HEK-293T) (PSI 1-6); higher = more stable
Conditions: c terminus: a fixed tail appended
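Further: lentivirally expressed fusions sorted by FACS into six bins by GFP to DsRed ratio, PSI derived from sequencing read proportions per bin multiplied by bin number.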

Protein stability index of substitutions, site by site:
K16: I 3.95; L 4.3; M 3.44; N 3.97; P 4.29; Q 4.24; R 4.04; S 4.42; T 4.24; V 4.53; W 3.13; Y 3.6
G17: A 3.78; C 3.8; D 4.55; E 4.78; F 3.97; H 3.93; I 2.92; K 3.65; L 3.21; M 3.43; N 3.74; P 4.42; Q 3.88; R 3.97; S 3.71; T 3.98; V 3.55; W 3.51; Y 3.93
T18: A 4.15; C 4.19; D 4.05; E 4.17; F 3.46; G 3.81; H 3.79; I 3.31; K 3.61; L 3.14; M 3.51; N 4.09; P 3.22; Q 4.03; R 3.76; S 4; V 4.55; W 3; Y 3.8
R19: A 4.95; C 4.67; D 5.16; E 5.27; F 3.86; G 4.68; H 4.4; I 4.58; K 4.21; L 4.5; M 4.8; N 4.58; P 4.84; Q 4.49; S 4.94; T 4.89; V 5.14; W 4.17; Y 3.37
E20: A 4.82; C 3.66; D 4.76; F 4.6; G 5; H 4.89; I 4; K 5.19; L 4.6; M 4.54; N 4.68; P 4.89; Q 4.38; R 4.2; S 4.88; T 4.86; V 4.32; W 4.5; Y 4.92
S21: A 5.05; C 4.57; D 5.1; E 4.99; F 4.18; G 5.25; H 5.02; I 4.93; K 4.97; L 4.99; M 5.23; N 5.19; P 5.24; Q 5.22; R 4.82; T 3.57; V 4.84; W 4.34; Y 5.09
W22: A 5.29; C 5.1; D 5.42; E 5.67; F 5.38; G 5.53; H 5.45; I 5.53; K 5.7; L 5.25; M 5.53; N 5.83; P 5.54; Q 5.47; R 5.82; S 4.29; T 5.24; V 5.12; Y 5.6
D23: A 4.65; C 1.98; E 1.82; F 3.93; G 2.83; H 3.81; I 2.69; K 2.47; L 1.98; M 2.32; N 4.15; P 4.76; Q 3.51; R 2.13; S 1.78; T 1.05; V 2.56; W 3.59; Y 4.07
S24: A 4.38; C 4.07; D 4.54; E 3.93; F 4.38; G 4.89; H 3.97; I 4.26; K 4.17; L 4.37; M 4.34; N 4.57; P 4.99; Q 3.84; R 3.94; T 4.58; V 4.62; W 4.59; Y 4.46

Variants of: B2
Assay: as above
Conditions: c terminus: a fixed tail appended

Protein stability index: each site, then its substitutions
H1: A 3.37; C 3.85; D 3.73; G 3.68; I 2.06; K 3.5; L 2.54; N 4.13; R 3.53; S 4.38; T 2.88; V 3.15; W 2.7; Y 3.16
K2: A 3.42; C 3.21; D 2.92; F 3.32; G 3.43; H 3.27; I 2.98; L 3.41; M 2.52; N 3.78; P 3.46; Q 3.36; S 3.19; T 3.03; V 3.25; W 3.04; Y 2.37
K3: A 3.73; D 2.5; F 3.19; G 3.33; H 4.24; I 3.15; L 3.46; M 3.42; P 3.12; Q 3.14; R 3.46; T 2.07; V 3.51; W 3.1; Y 2.02
K4: A 2.87; C 3.75; F 3.52; G 3.13; H 3.41; L 4.2; M 3.37; P 3.72; Q 2.84; R 4.01; S 3.14; T 3.89; V 3.66; W 2.98; Y 2.33
S5: A 4.1; E 3.7; F 3.4; H 3.32; I 3.26; L 3.23; M 3.18; N 3.88; P 2.71; Q 3.84; V 2.77; Y 3.55
P6: D 2.73; E 3.4; F 3.36; G 4.52; I 3.19; K 3.39; N 3.44; Q 3.57; R 3.51; T 4.38; V 2.98; W 3.05; Y 3.94
G7: A 3.46; F 3.53; I 2.94; M 3.46; N 3.52; P 4.25; Q 3.2; S 3.36; T 3.58; V 3.76; Y 3.55
E8: A 3.41; C 3.64; D 3.81; F 3.14; H 3.92; I 3.17; K 3.57; L 3.01; M 2.93; N 2.75; P 3.63; Q 2.99; R 3.99; V 3.79; W 3.36; Y 3.9
K9: F 3.38; H 2.57; L 2.42; M 4.23; N 4.35; R 3.94; W 3.66; Y 3.75
P10: A 4.54; C 2.56; D 3.74; E 3.52; F 3.15; I 3.58; K 4.63; L 4.06; M 4.07; N 3.3; Q 3.09; R 3.31; S 3.86; T 3.83; V 3.65
H11: A 3.42; C 4.53; D 3.21; E 4.17; G 3.57; K 3.28; L 3.19; M 3.18; N 3.41; R 3.08; T 3.49; W 3.54; Y 3.02
R12: F 2.56; G 3.1; H 3.59; K 3.98; L 3.85; N 3.92; P 2.74; Q 3.19; S 4.11; T 2.74; W 2.68; Y 3.3
C13: D 4.36; E 4.34; F 2.71; H 4.07; I 4.05; K 4.26; M 4.82; N 4.95; Q 3.88
